± gives the uncertainty stated by the source.
Assay: protein stability index of a GFP-peptide fusion (yeast GPS) (PSI 1-4); higher = more stable; sorted into four equal gates, so the index is relative within each strain
Procedure, shortened: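 Yeast carrying a pooled library were grown to mid-log phase in leucine-free medium. Each library plasmid expresses Cherry and has a tiled 17-residue yeast protein peptide fused downstream of GFP. Cells were sorted into four equal gates by GFP/Cherry ratio, and plasmids from each gate were PCR-amplified, Illumina-sequenced and assigned to strains by barcode. Summing, across gates, the read frequency times the gate number gave each peptide's protein stability index.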

RSEEEVTKLNVLVDEIK [YIL149C/MLP2]
protein stability index (doa10∆): 3.42 ± 0.15 | protein stability index (pdr5∆): 3.5 ± 0.11 | protein stability index (san1∆): 3.24 ± 0.059 | protein stability index (ubr1∆): 3.36 ± 0.082

ALNSMCASIPIAIIKDT [RRP46]
protein stability index (doa10∆): 1.48 ± 0.12 | protein stability index (pdr5∆): 1.67 ± 0.08 | protein stability index (san1∆): 1.8 ± 0.097 | protein stability index (ubr1∆): 1.79 ± 0.073

QARIILNHILEKSTQLQ [YGR119C/NUP57]
protein stability index (doa10∆): 2.83 ± 0.12 | protein stability index (pdr5∆): 3.09 ± 0.072 | protein stability index (san1∆): 2.63 ± 0.12 | protein stability index (ubr1∆): 2.79 ± 0.043

KAFKICEAAVEISKKDF [SIR3]
protein stability index (doa10∆): 3.19 ± 0.13 | protein stability index (pdr5∆): 2.88 ± 0.082 | protein stability index (san1∆): 2.79 ± 0.14 | protein stability index (ubr1∆): 2.85 ± 0.12

FEIDDEHRIRVFFDKRI [RPS6A]
protein stability index (doa10∆): 1.88 ± 0.089 | protein stability index (pdr5∆): 3.02 ± 0.12 | protein stability index (san1∆): 2.17 ± 0.13 | protein stability index (ubr1∆): 2.94 ± 0.16

EEKEEENGDEDEDEDED [QCR6]
protein stability index (doa10∆): 3.68 ± 0.17 | protein stability index (pdr5∆): 3.34 ± 0.27 | protein stability index (san1∆): 3.27 ± 0.084 | protein stability index (ubr1∆): 3.64 ± 0.08

ESSSEDDYEDQDDDDYV [IRR1]
protein stability index (doa10∆): 3.58 ± 0.16 | protein stability index (pdr5∆): 3.52 ± 0.11 | protein stability index (ubr1∆): 3.65 ± 0.16

TKSKEQLASQLVDLKKE [RPL35A]
protein stability index (san1∆): 3.12 ± 0.098 | protein stability index (ubr1∆): 3.2 ± 0.17

TFIDKERHQKQLNEKLV [YCS4]
protein stability index (doa10∆): 2.62 ± 0.13 | protein stability index (pdr5∆): 2.6 ± 0.16 | protein stability index (san1∆): 2.81 ± 0.078 | protein stability index (ubr1∆): 2.65 ± 0.093

NELQEERLKVPILVTLV [POP6]
protein stability index (doa10∆): 1.67 ± 0.034 | protein stability index (pdr5∆): 1.99 ± 0.036 | protein stability index (san1∆): 1.84 ± 0.053 | protein stability index (ubr1∆): 1.7 ± 0.023

GNISSSTVKKKDIVNIS [REC8]
protein stability index (doa10∆): 3.03 ± 0.063 | protein stability index (pdr5∆): 3.07 ± 0.056 | protein stability index (san1∆): 2.88 ± 0.044 | protein stability index (ubr1∆): 3.02 ± 0.05

DGKEDVEKGTPLGKILL [SME1]
protein stability index (doa10∆): 3.57 ± 0.071 | protein stability index (pdr5∆): 3.44 ± 0.09 | protein stability index (san1∆): 3.53 ± 0.053 | protein stability index (ubr1∆): 3.56 ± 0.075

NAKIIDAEVAQFLEQGL [SRP68]
protein stability index (doa10∆): 2.83 ± 0.057 | protein stability index (pdr5∆): 2.59 ± 0.045 | protein stability index (san1∆): 2.12 ± 0.073 | protein stability index (ubr1∆): 3.08 ± 0.041

SFDSIDHSWFLLIGCKL [CSI1]
protein stability index (doa10∆): 1.71 ± 0.1 | protein stability index (pdr5∆): 1.77 ± 0.058 | protein stability index (san1∆): 1.72 ± 0.2 | protein stability index (ubr1∆): 2.58 ± 0.05

NHASMDVYNRELDEHTT [BRR2]
protein stability index (doa10∆): 3.27 ± 0.068 | protein stability index (pdr5∆): 3.16 ± 0.063 | protein stability index (san1∆): 3.26 ± 0.047 | protein stability index (ubr1∆): 3.26 ± 0.056

ENGTLLVPPPRTIANQD [RPR2]
protein stability index (doa10∆): 3.01 ± 0.054 | protein stability index (pdr5∆): 3.05 ± 0.052 | protein stability index (san1∆): 2.81 ± 0.05 | protein stability index (ubr1∆): 2.99 ± 0.036

YTVNVVDVFAMPQSGTG [RPN11]
protein stability index (doa10∆): 3.08 ± 0.088 | protein stability index (pdr5∆): 3.28 ± 0.1 | protein stability index (san1∆): 3.3 ± 0.063 | protein stability index (ubr1∆): 3.07 ± 0.077

APLFKKNSSRPMPPIRG [SMD3]
protein stability index (doa10∆): 2.42 ± 0.059 | protein stability index (pdr5∆): 2.29 ± 0.064 | protein stability index (san1∆): 2.39 ± 0.062 | protein stability index (ubr1∆): 2.5 ± 0.061

KKDSKPAFSFGISNGSE [YLR335W/NUP2]
protein stability index (doa10∆): 3.16 ± 0.067 | protein stability index (pdr5∆): 3.12 ± 0.069 | protein stability index (san1∆): 3.1 ± 0.044 | protein stability index (ubr1∆): 3.15 ± 0.058

THDGRTIRYPDPNIKVN [RPS4A]
protein stability index (doa10∆): 1.52 ± 0.13

EGIKVVDIDDPDMMVDS [SNF2]
protein stability index (doa10∆): 3 ± 0.17 | protein stability index (pdr5∆): 3.14 ± 0.19 | protein stability index (san1∆): 3.12 ± 0.094 | protein stability index (ubr1∆): 2.97 ± 0.091

SVEAYLVSLFEDTNLAA [HHT1]
protein stability index (pdr5∆): 2.86 ± 0.26 | protein stability index (san1∆): 2.59 ± 0.15 | protein stability index (ubr1∆): 3.06 ± 0.14

LHEKYLTEGGSILEEKI [SMC1]
protein stability index (doa10∆): 3.02 ± 0.077 | protein stability index (pdr5∆): 3.24 ± 0.1 | protein stability index (san1∆): 3.01 ± 0.061 | protein stability index (ubr1∆): 3.19 ± 0.094

GNAKESKALLREISNFS [SRP72]
protein stability index (doa10∆): 2.97 ± 0.17 | protein stability index (pdr5∆): 2.94 ± 0.13 | protein stability index (san1∆): 2.7 ± 0.14 | protein stability index (ubr1∆): 3.01 ± 0.15

PQENDLESKMSEVGDAF [SMC3]
protein stability index (doa10∆): 2.73 ± 0.2 | protein stability index (pdr5∆): 3.36 ± 0.2 | protein stability index (san1∆): 3.43 ± 0.11 | protein stability index (ubr1∆): 2.98 ± 0.22

SLEENAMSTVTLGVVGK [SKI6]
protein stability index (doa10∆): 3.22 ± 0.16 | protein stability index (pdr5∆): 3.21 ± 0.14 | protein stability index (san1∆): 3.04 ± 0.099 | protein stability index (ubr1∆): 2.72 ± 0.11

TTDKLRSMVRKWQTLIE [RPS1A]
protein stability index (doa10∆): 2.72 ± 0.17 | protein stability index (pdr5∆): 2.46 ± 0.15

NEVCLEKENRFEIVDRE [SMC4]
protein stability index (doa10∆): 2.62 ± 0.089 | protein stability index (pdr5∆): 2.92 ± 0.11 | protein stability index (san1∆): 3.1 ± 0.1 | protein stability index (ubr1∆): 3.3 ± 0.082

KEKLTVQDCRYSLASVT [POP1]
protein stability index (doa10∆): 2.69 ± 0.039 | protein stability index (pdr5∆): 2.62 ± 0.043 | protein stability index (san1∆): 2.35 ± 0.043 | protein stability index (ubr1∆): 2.46 ± 0.035

PLLARKQFVVDVLHPNR [RPS24A]
protein stability index (doa10∆): 1.58 ± 0.14 | protein stability index (pdr5∆): 1.83 ± 0.072 | protein stability index (san1∆): 1.72 ± 0.12 | protein stability index (ubr1∆): 1.62 ± 0.071

PKMKDEEYDDDDDNSNV [SNF2]
protein stability index (doa10∆): 3.4 ± 0.095 | protein stability index (pdr5∆): 3.37 ± 0.16 | protein stability index (san1∆): 3.23 ± 0.072 | protein stability index (ubr1∆): 3.27 ± 0.15

KPKNTKENLSKSSWRQE [SIR4]
protein stability index (doa10∆): 1.35 ± 0.076 | protein stability index (pdr5∆): 1.21 ± 0.049 | protein stability index (san1∆): 1.21 ± 0.1 | protein stability index (ubr1∆): 1.5 ± 0.049

FDPSRIKDLKQREDKLK [SMC2]
protein stability index (doa10∆): 2.66 ± 0.087 | protein stability index (pdr5∆): 2.88 ± 0.18 | protein stability index (san1∆): 2.99 ± 0.28 | protein stability index (ubr1∆): 2.92 ± 0.13

LYGKRFFPYYVHTIIAG [PRE7]
protein stability index (doa10∆): 1.15 ± 0.032 | protein stability index (pdr5∆): 1.23 ± 0.039 | protein stability index (san1∆): 1.13 ± 0.11 | protein stability index (ubr1∆): 1.14 ± 0.041

STKVENSAIIQNLRKEL [YIL149C/MLP2]
protein stability index (doa10∆): 3.2 ± 0.084 | protein stability index (pdr5∆): 2.88 ± 0.12 | protein stability index (san1∆): 3.28 ± 0.071 | protein stability index (ubr1∆): 3.3 ± 0.051

HSNRCIVFSKKEPFPHS [CSN12]
protein stability index (doa10∆): 2.49 ± 0.043 | protein stability index (pdr5∆): 2.85 ± 0.047 | protein stability index (san1∆): 2.8 ± 0.058 | protein stability index (ubr1∆): 2.69 ± 0.037

KWSKKSMKDRAQHAVIL [RPS25A]
protein stability index (doa10∆): 2.37 ± 0.058 | protein stability index (pdr5∆): 2.42 ± 0.095 | protein stability index (san1∆): 2.73 ± 0.091 | protein stability index (ubr1∆): 2.63 ± 0.054

EDFEHNNLSSMNLDFDI [MCD1]
protein stability index (doa10∆): 2.76 ± 0.053 | protein stability index (pdr5∆): 3.24 ± 0.061 | protein stability index (san1∆): 3.24 ± 0.04 | protein stability index (ubr1∆): 3.24 ± 0.033

MSVKPIDNYITNSVRLF [SRP21]
protein stability index (doa10∆): 1.94 ± 0.076 | protein stability index (pdr5∆): 1.91 ± 0.06 | protein stability index (san1∆): 1.56 ± 0.068 | protein stability index (ubr1∆): 1.63 ± 0.079

MVLYKRKPILLPDPKPL [ITC1]
protein stability index (doa10∆): 2.88 ± 0.067 | protein stability index (pdr5∆): 2.85 ± 0.065 | protein stability index (san1∆): 2.75 ± 0.067 | protein stability index (ubr1∆): 2.66 ± 0.055
